B1: library; numbered along this chain (parent)
chain: MAAAGGARLLRAASAVLGGPAGRWLHHAGSRAGSSGLLRNRGPGGSAEASRSLSVSARARSSSEDKITVHFINRDGETLTTKGKVGDSLLDVVVENNLDIDGFGACEGTLACSTCHLIFEDHIYEKLDAITDEENDMLDLAYGLTDRSRLGCQICLTKSMDNMTVRVPETVADARQSIDVGKTS

Variants of: B1
Assay: scaled log2 fold change in cell abundance, elesclomol vs control (0 = silent mean, 1 = nonsense mean) (scaled log2 ratio); higher = higher viability under elesclomol (loss of FDX1 cuproptosis function)
Conditions: glucose 10 mM
[1] = with ABC1 FDX1 KO, elesclomol 5 nM, 14 days
[2] = with HEK293T FDX1 KO, elesclomol 40 nM, 11 days
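Further: variant abundance is its share of total variant reads in each endpoint sample, from next-generation sequencing of the integrated ORF PCR-amplified out of genomic DNA.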

Variant | scaled log2 fold change [1] | scaled log2 fold change [2]
T131N | 0.126 | -0.681
T131Y | 0.17 | -0.668
T131S | 0.0867 | 
T131D | 0.127 | -0.23
T131Q | 0.134 | 0.928
T131K | -0.138 | 2.11
T131P | 0.137 | -0.104
T131V | -0.238 | 0.525
T131F | -1.03 | 0.443
T131I | -0.0956 | 0.347
T131H | -0.186 | 0.267
T131R | -0.448 | 0.487
T131L | -0.29 | 0.562
T131E | 0.357 | -0.395
T131A | -0.777 | 0.0649
T131W | 0.374 | -0.135
T131M | 0.154 | 
T131G | 0.277 | 
T131C | -0.2 | -0.521
N135W | -0.118 | 0.554
N135A | -0.0811 | -0.437
N135T | -0.162 | -0.382
N135P | 0.887 | 0.821
N135C | 0.138 | 

Variant | scaled log2 fold change [1] | scaled log2 fold change [2]
N135L | 0.151 | 0.661
N135R | -0.532 | 1.02
N135E | -0.00674 | 0.0823
N135Y | 0.0894 | 0.75
N135I | -0.261 | 0.197
N135G | 0.0707 | -0.645
N135K | -0.148 | -0.129
N135S | 0.055 | -0.262
N135V | 0.161 | 0.0375
N135D | 0.117 | 0.905
N135Q | 0.215 | -0.339
N135M | -0.00864 | -0.104
N135F | 0.44 | -0.599
E134K | 1.1 | 1.28
E134A | 0.628 | 0.137
E134Q | 0.525 | -0.44
E134C | 0.676 | 1.13
E134W | 1.07 | 1.32
E134R | 1.23 | 1.26
E134P | 1.22 | 1.01
E134I | 1.03 | 0.865
E134L | 1.1 | 1.21
E134D | 0.911 | 1.21
E134Y | 0.977 | 2.18

Variant | scaled log2 fold change [1] | scaled log2 fold change [2]
E134T | 1.02 | 0.834
E134N | 1.16 | 0.994
E134F | 1.23 | 1.01
E134V | 0.638 | 0.419
E134M | 0.946 | 0.587
E134S | 0.926 | 0.571
E134G | 1.21 | 0.684
E134H | 0.345 | 0.225
E133L | -0.204 | 0.0198
E133V | 0.153 | -0.0517
E133T | 0.0196 | 0.842
E133F | -0.18 | -0.56
E133Y | -0.281 | 0.898
E133I | 0.458 | -0.339
E133A | -0.216 | 1.27
E133W | -1.03 | 0.0959
E133G | -0.151 | -0.168
E133M | -0.152 | -0.547
E133R | 0.274 | 0.00388
E133H | -0.148 | -0.764
E133N | -0.113 | -0.0813
E133S | -1.5 | 
E133Q | -0.239 | -0.406
E133C | 0.215 | -0.346

Variant | scaled log2 fold change [1] | scaled log2 fold change [2]
E133P | -0.087 | 0.243
E133D | 0.319 | 0.453
E133K | 0.105 | 0.342
D132N | -0.0637 | 
D132M | -0.07 | -0.451
D132F | -0.0218 | -0.336
D132S | -0.409 | 1.12
D132P | -0.221 | -0.681
D132V | 0.152 | -0.737
D132Y | 0.176 | 1.12
D132G | -0.0468 | 0.9
D132I | -0.789 | 
D132A | -0.35 | -0.0723
D132R | -0.373 | -0.177
D132E | 0.299 | 0.371
D132W | -0.0682 | -0.335
D132L | 0.217 | -0.447
D132Q | 0.014 | 0.0254
D132H | 0.104 | -1.46
D132T | -0.0728 | -0.282
D132K | -0.0835 | 0.943
D132C | -0.0894 | -0.0904
K126F | -0.00916 | 0.517
K126E | -0.285 | 0.945

Variant | scaled log2 fold change [1] | scaled log2 fold change [2]
K126Y | -0.263 | 0.0548
K126H | 0.0646 | 0.114
K126Q | -0.973 | -0.036
K126S | -0.46 | -0.133
K126T | -0.51 | -0.395
K126P | 0.252 | 0.147
K126G | 0.426 | 0.372
K126R | -0.769 | -0.286
K126I | -0.0257 | -0.476
K126L | -0.515 | -0.357
K126W | 0.411 | 0.186
K126V | 0.162 | 0.807
K126N | -0.104 | -0.19
K126M | 0.305 | 0.341
K126D | 0.116 | 0.255
A129C | -0.31 | 0.555
A129K | -0.557 | -0.17
A129H | -0.541 | 
A129G | 0.16 | 
A129M | -0.0116 | 
A129W | -0.08 | 1.07
A129F | 0.044 | -0.227
A129P | 0.272 | 0.0261
